From paper PMC12193700, “Hyperthermophilic L-Asparaginase from Thermococcus sibiricus and Its Double Mutant with Increased Activity: Insights into Substrate Specificity and Structure” (International Journal of Molecular Sciences, 2025) come the findings set out here.

Where a chain is given by its changes, count along the chain named. Numbers in names are those of the source.

For orientation: Km means the substrate concentration at which the rate is half of its maximum. One may read the Vmax as the rate approached at saturating substrate.

Holding throughout (test): direct Nesslerization (ammonia release)
Data set [1] addresses T1, TsAI (Thermococcus sibiricus, UniProt C6A532, D54G/T56Q).
T1 construct: gene TSIB_1676; full-length, 331 residues, homodimer
It is filed as biochemical. To be noted: 90 °C, 0.05 M Tris-HCl pH 9.0; 0.25–20 mM substrate. The source says: (§1) direct Nesslerization (ammonia release) on TsAI

Substrate in data set [2]: NC(=O)C[C@@H](N)C(=O)O
It is filed as biochemical, Thermococcus sibiricus. To be noted: 90 °C, 0.05 M Tris-HCl pH 9.0, 0.25–30 mM substrate.
Text: as §1

Substrate in data set [3]: NC(=O)CC[C@H](N)C(=O)O
The data set is classed as biochemical, Thermococcus sibiricus. The conditions noted are these: 90 °C, 0.05 M Tris-HCl pH 9.0, 0.25–30 mM substrate.
Text: as §1

Substrate in data set [4]: NC(=O)CC[C@@H](N)C(=O)O
It is filed as biochemical, Thermococcus sibiricus. To be noted: 90 °C, 0.05 M Tris-HCl pH 9.0, 0.25–40 mM substrate.
Text: as §1

Substrate in data set [5]: NC(=O)C[C@H](N)C(=O)O
The data set is classed as biochemical, Thermococcus sibiricus. The conditions noted are these: 90 °C, 0.05 M Tris-HCl pH 9.0, 0.25–20 mM substrate.
Text: as §1

T1 sequence (C6A532 entry or part of it D54G/T56Q): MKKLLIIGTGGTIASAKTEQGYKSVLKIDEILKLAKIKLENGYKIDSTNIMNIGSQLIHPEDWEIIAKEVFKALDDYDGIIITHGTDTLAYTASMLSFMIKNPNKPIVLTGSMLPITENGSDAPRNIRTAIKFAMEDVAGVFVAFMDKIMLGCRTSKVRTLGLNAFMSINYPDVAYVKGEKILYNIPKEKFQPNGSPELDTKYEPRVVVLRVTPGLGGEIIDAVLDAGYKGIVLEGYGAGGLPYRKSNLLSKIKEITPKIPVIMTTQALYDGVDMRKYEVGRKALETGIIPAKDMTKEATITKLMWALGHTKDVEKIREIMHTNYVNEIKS

With `NC(=O)C[C@H](N)C(=O)O` [L-asparagine], the Michaelis-Menten constant (Km) in data set [1] stood at 6.03 ± 0.15 mM.

B1: TsAI (Thermococcus sibiricus MM 739) (protein)
chain: MKKLLIIGTGGTIASAKTEQGYKSVLKIDEILKLAKIKLENGYKIDSTNIMNIDSTLIHPEDWEIIAKEVFKALDDYDGIIITHGTDTLAYTASMLSFMIKNPNKPIVLTGSMLPITENGSDAPRNIRTAIKFAMEDVAGVFVAFMDKIMLGCRTSKVRTLGLNAFMSINYPDVAYVKGEKILYNIPKEKFQPNGSPELDTKYEPRVVVLRVTPGLGGEIIDAVLDAGYKGIVLEGYGAGGLPYRKSNLLSKIKEITPKIPVIMTTQALYDGVDMRKYEVGRKALETGIIPAKDMTKEATITKLMWALGHTKDVEKIREIMHTNYVNEIKS
notes: full-length, 331 residues, homodimer
Turning to B1, the Km in data set [2] worked out at 8.63 ± 0.48 mM; in data set [3] it was 11.09 ± 0.25 mM; in data set [4] it was 13.86 ± 0.86 mM; in data set [5], 3.10 ± 0.15 mM. Also, the Vmax in data set [2] came out at 660 µM/min; in data set [3], 280 µM/min; in data set [4] it was 180 µM/min; in data set [5], 4020 µM/min.

B2: TsAI (Thermococcus sibiricus MM 739; D54G/T56Q) (protein)
chain: B1 chain with D54G, T56Q
notes: as for B1
As to B2, the values for the Km in data set [2], in data set [3] and in data set [4] were 9.18 ± 0.86 mM, 11.41 ± 0.27 mM and 14.40 ± 1.60 mM, respectively. Besides, the Vmax in data set [2] came out at 590 µM/min; in data set [3], 250 µM/min; in data set [4], 180 µM/min.
